Consider 2 molecules from US8409859B2, “Differentiation of non-embryonic stem cells to cells having a pancreatic phenotype” (Regents of the University of Minnesota, priority 2005, dated 2013).

This assay concerns rat MAPCs. Kind of assay: Cytokine mediated differentiation of rat MAPCs, Q-RT-PCR and cell survival. Type of assay: cell-based.

Description: For Q-RT-PCR reactions described herein, the primer sequences are presented in Tables 3-5 and the following protocols were used: RNA was extracted from the cells with the aid of the RNeasy Mini Kit (Qiagen; Valencia Calif.), followed by a DNase Treatment with DNA-Free™ (Ambion, Austin, Tex.). The RNA was reverse transcribed with TaqMan (Applied Biosystems, Foster City, Calif.; Step 1 (Incubation): 25° C., 10 min; Step 2 (RT): 48° C., 30 min; Step 3 (RT Inactivation): 95° C., 10 min).
Following reverse transcription, Quantitative Real Time PCR (Q-RT-PCR) was performed as follows: Step 1: 50° C., 2 min (Incubation); Step 2: 95° C., 10 min (Taq activation); Step 3: 95° C., 15 sec (Denaturation) followed by 60° C., 1 min (Extension) and repeat for 40 cycles; Step 4: 95° C., 15 sec (Dissociation); Step 5: 60° C., 20 sec (Melting curve); Step 6: 95° C., 15 sec.
In an initial series of studies, the effect of cell density (about 10^4-10^5 cells/cm^2), ECM component (fibronectin, collagen, matrigel) and different concentrations (10-100 ng/mL) of bFGF (10-100 ng/mL), FGF2 (10-100 ng/mL), Activin A (e.g., about 10 ng/mL to about 100 ng/mL), BMP4 (e.g., about 10 ng/mL to about 50 ng/mL), retinoic acid (about 10^−6M), EGF (e.g., about 10 to about 100 ng/mL), FGF10 (e.g., about 50 to about 150 ng/mL, including about 100 ng/mL), HGF (e.g., about 10 to about 100 ng/mL), GDF11 (e.g., about 50 to abut 150 ng/mL), cyclopamine (e.g., about 10 μM), anti-SHH antibody (Ab; e.g., about 10 μg/mL), nicotinamide (e.g., 5 μM to about 50 μM, including about 10 μM), exendin 4 (about 5 nM to about 50 nM, including about 10 nM), betacellulin (e.g., about 50 to abut 150 ng/mL) alone or in combinations of 2 or 3 and in different temporal sequences, on the induction of transcription factors, insulin, glucagon and somatostatin expression levels after 6, 12 and 18 days using Q-RT-PCR was determined.
Subsequent addition of factors believed to play a role in further proliferation and differentiation from pancreas-committed cells to mature endocrine pancreas, including EGF (e.g., about 50 ng/mL), HGF (e.g., about 50 ng/mL) and FGF10 (e.g., about 100 ng/mL), either alone or in combination was tested. […] Further optimization was obtained by adjusting the duration of the different steps along the differentiation course, as well addition of β-cellulin (50 ng/mL).

B1: GDF11: member of the BMP/TGFbeta superfamily (protein, UniProt O95390 299-407, looked up)
Growth/differentiation factor …: NLGLDCDEHSSESRCCRYPLTVDFEAFGWDWIIAPKRYKANYCSGQCEYMFMQKYPHTHLVQQANPRGSAGPCCTPTKMSPINMLYFNDKQQIIYGKIPGMVVDRCGCS
Take B1: where the note is “GDF11 added”, the “Ins1 and Ins2 mRNA levels” value is “a further increase”.

B2: FGF10: FGF produced by mesenchymal cells, used at about 100 ng/mL (protein, UniProt O15520 38-208, looked up)
Fibroblast growth factor 10: QALGQDMVSPEATNSSSSSFSSPSSAGRHVRSYNHLQGDVRWRKLFSFTKYFLKIEKNGKVSGTKKENCPYSILEITSVEIGVVAVKAINSNYYLAMNKKGKLYGSKEFNNDCKLKERIEENGYNTYASFNWQHNGRQMYVALNGKGAPRRGQKTRRKNTSAHFLPMVVHS
As for B2, the cell survival entry (activin-A, BMP4 and cyclopamine or anti-SHH Ab withdrawn after d6, cells then maintained with the factor) is on record as “not”.
